In patent US20140221623A1 (Ablynx, published 2014):
Values joined by “and” are separate entries in the source; they are usually repeats but may differ in a detail not shown here. Equal values may be shown once. Each block holds one binder with its values, some of them ahead of it.

Tests used:
[1] = target: T1, Human soluble IL6-R (human, UniProt P08887 20-358); experiment: SPR (Biacore), off-rate
T1 construct: Bought soluble receptor; biotinylated in some Alphascreen assays; also called sIL6-R; hIL-6R
T1 sequence (looked up): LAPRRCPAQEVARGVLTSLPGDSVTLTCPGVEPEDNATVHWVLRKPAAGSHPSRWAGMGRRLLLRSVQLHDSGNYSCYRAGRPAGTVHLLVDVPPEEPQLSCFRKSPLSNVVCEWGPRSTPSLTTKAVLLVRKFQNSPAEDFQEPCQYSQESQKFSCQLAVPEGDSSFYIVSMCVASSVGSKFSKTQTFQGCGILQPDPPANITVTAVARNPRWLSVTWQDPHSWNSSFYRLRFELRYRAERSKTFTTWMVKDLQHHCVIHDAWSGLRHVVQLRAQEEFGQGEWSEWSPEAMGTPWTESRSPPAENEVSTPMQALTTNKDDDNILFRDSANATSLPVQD

[2] = target: T2, IL6-R on U266 cells (human, UniProt P08887 20-468); experiment: cell-based or functional assay
T2 sequence (looked up): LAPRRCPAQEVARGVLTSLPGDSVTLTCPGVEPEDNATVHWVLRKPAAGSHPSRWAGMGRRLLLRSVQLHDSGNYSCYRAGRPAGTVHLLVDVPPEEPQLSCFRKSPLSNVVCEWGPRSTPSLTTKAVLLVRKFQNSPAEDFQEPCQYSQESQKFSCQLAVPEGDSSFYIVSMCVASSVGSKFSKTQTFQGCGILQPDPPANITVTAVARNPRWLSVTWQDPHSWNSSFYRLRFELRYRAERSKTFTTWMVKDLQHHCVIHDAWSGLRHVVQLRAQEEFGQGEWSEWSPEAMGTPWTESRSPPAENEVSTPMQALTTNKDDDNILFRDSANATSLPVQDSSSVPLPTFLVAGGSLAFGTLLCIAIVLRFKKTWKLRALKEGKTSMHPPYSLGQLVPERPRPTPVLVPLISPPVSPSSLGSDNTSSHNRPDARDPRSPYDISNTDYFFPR

[3] = target: T1, Human soluble IL6-R; experiment: SPR (Biacore 3000), IL6-R on CM5 chip
[4] = target: T2, IL6-R on U266 cells; experiment: cell-based or functional assay; remark: listed apart in the source
[5] = target: T1, Human soluble IL6-R; experiment: Alphascreen, 100 nM Nanobody; competitor Reference-Fab on beads

B1: PMP 30 B1 (VHH)
VHH: EVQLVESGGGLVQPGGSLRLSCAASGFTLDYYAIGWWRQAPGKGREGVSCISSGDGSTNYADSVKGRFTISRDNAKNTVYLQMNSLKPEDTAVYYCATDRSVYYCSGGAPEEYYWGQGTQVTVSS
notes: also called PMP30B1(t)
koff [1]: 0.001 s⁻¹

B2: IL6R02 (VHH)
VHH: EVQLVESGGGLVQAGGSLRLSCAASGRTFSSYDMGWYRQAPGKEREFVAVISRSGSSTYYADSVKGRFTISRDNAKNTVYLQMNSLKPEDTAIYYCKAEVVAGDYDYWGQGTQVTVSS
notes: also called PMP30C11; PMP 30 C11
IC50, TF-1 proliferation [2]: 29.7 nM
Kd [3]: 5.9 nM
koff [3]: 0.00294 s⁻¹ and 0.00495 s⁻¹
kon [3]: 840000 M⁻¹ s⁻¹
IC50, XG-1 proliferation [4]: 31 nM
% binding retained in competition with Reference-Fab [5]: 86%
koff [1]: 0.00294 s⁻¹

B3: PMP 34 C11 (VHH)
VHH: EVQLVESGGGLVQPGGSLRLSCAAAGFTLDYSAIGWFRQAPGKEREMFSCISGSDGSTWYADSVAGRFTISFDNAKNTVYLQMNSLKPEDTGLYICAVTGGVRGPCAYEYEYWGQGTQVTVSS
koff [1]: 0.00367 s⁻¹

B4: Reference Fab (Fab, V domains shown)
VH: QVQLQESGPGLVRPSQTLSLTCTVSGYSITSDHAWSWVRQPPGRGLEWIGYISYSGITTYNPSLKSRVTMLRDTSKNQFSLRLSSVTAADTAVYYCARSLARTTAMDYWGQGSLVTVSS
VL: DIQMTQSPSSLSASVGDRVTITCRASQDISSYLNWYQQKPGKAPKLLIYYTSRLHSGVPSRFSGSGSGTDFTFTISSLQPEDIATYYCQQGNTLPYTFGQGTKVEIKR
notes: Anti-human IL-6R Fab according to EP 0 628 639, made in E. coli periplasm; also called Tocilizumab-Fab
Kd [3]: 0.86 nM
koff [3]: 0.00066 s⁻¹
kon [3]: 768000 M⁻¹ s⁻¹
IC50, XG-1 proliferation [4]: 5.99 nM

B9: PMP 31 B4 (VHH)
VHH: EVQLVESGGGLVQPGGSLRLSCAASGFTFGSYDMSWVRQAPGKGPEWVSAINSGGGSTYYADSVKGRFTISRDNAKNTLYLQMNSLKPEDTAVYYCATDWRYSDYDLPLPPPGDYWGQGTQVTVSS
notes: also called PMP31B4(t)
koff [1]: 0.00128 s⁻¹

B10: PMP 31 F4 (VHH)
VHH: B9 VHH
notes: also called PMP31F4(t)
koff [1]: 0.00123 s⁻¹

B14: PMP 31 C8 (VHH)
VHH: B9 VHH
notes: also called PMP31C8(t)
koff [1]: 0.00125 s⁻¹

B15: PMP 32 H5 (VHH)
VHH: B9 VHH
notes: also called PMP32H5(t)
koff [1]: 0.00128 s⁻¹

Now from value to binder:

IC50, TF-1 proliferation [2]: 6.92 nM
Kd [3]: 1.71 nM
koff [3]: 0.00116 s⁻¹ and 0.000896 s⁻¹
kon [3]: 678000 M⁻¹ s⁻¹
IC50, XG-1 proliferation [4]: 2.75 nM
% binding retained in competition with Reference-Fab [5]: 103%
koff [1]: 0.000896 s⁻¹
B5: IL6R12 (VHH)
VHH: EVQLVESGGGLVQAGGSLRLSCAASGRTFSSYDMGWYRQAPGKEREFVAIITWNSSTYYADSVKGRFTISRDNAKNTVYLQMNSLKPEDTAIYYCNAQYGLGYAEDYWGQGTQVTVSS
notes: also called PMP35F4; PMP 35 F4

Kd [3]: 0.418 nM
koff [3]: 0.00011 s⁻¹
kon [3]: 262000 M⁻¹ s⁻¹
% binding retained in competition with Reference-Fab [5]: 49%
B6: IL6R01 (VHH)
VHH: EVQLVESGGGFVQAGGSLRLSCIASGDNFSINRMGWYRQALGKQRELVAIITNHGSTNYADAVKGRFTISRDYAKNTVYLQMNGLKPDDTAVYYCNAYISEVGTWRDDYWGQGIQVTVSS
notes: also called PMP28E11; PMP 28 E11

koff [1]: 0.00134 s⁻¹
B7: PMP 28 B1 (VHH)
VHH: EVQLVESGGGLVQPGGSLRLSCAASGFTLNYYAIGWFRQAPGKEREGVSCISSSDGSTYYADSVKGRFTISRDNAKNTFYLQMNSLKPEDTAVYYCAAEGLGDSDSPCGAAWYNDYWGQGTQVTVSS
notes: also called PMP28B1(t)

IC50, TF-1 proliferation [2]: 19.9 nM
Kd [3]: 9.79 nM
koff [3]: 0.00141 s⁻¹ and 0.00127 s⁻¹
kon [3]: 144000 M⁻¹ s⁻¹
IC50, XG-1 proliferation [4]: 7.29 nM
% binding retained in competition with Reference-Fab [5]: 64%
koff [1]: 0.00127 s⁻¹
B8: IL6R05 (VHH)
VHH: B9 VHH
notes: also called PMP32E10; PMP 32 E10

koff [1]: 0.00126 s⁻¹
B11: PMP 28 F7 (VHH)
VHH: B9 VHH
notes: also called PMP28F7(t)

koff [1]: 0.00247 s⁻¹
B12: PMP 28 H6 (VHH)
VHH: B9 VHH
notes: also called PMP28H6(t)

koff [1]: 0.00124 s⁻¹
B13: PMP 31 B11 (VHH)
VHH: B9 VHH
notes: also called PMP31B11(t)
